Source: publication doi:10.1101/2025.09.16.675330

Experiments:
Glu105 = experiment: UV-vis; details: dark (ground) state, retinal-bound wild type; cited from earlier work
[1] = target: ChR024 (cation-conducting channelrhodopsin), full-length wild type, residues M1-T280; experiment: cryo-EM structure

stoichiometry N [1]	Substance	pKa (Glu105)
–	ChR024 (cation-conducting channelrhodopsin) (not stated (uncultured organism; sequence mined from a metagenomic database, identifier IMGM3300027749|Ga0209084_1026585|Ga0209084_10265853))	8.25
3	ChR024 (cation-conducting channelrhodopsin), full-length wild type, residues M1-T280 (natural protein)	–
